Test system: MS2 coat protein
Assay: apparent KD of MS2 coat protein; designed switch direction (-1 OFF switch, 1 ON switch): -1; higher = weaker reporter binding
Outline: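 The reported apparent KD is a per-design median over clusters, from curve fits of normalised cluster fluorescence. Protein titrations used SNAP-549-labelled MS2 coat protein, doubled from 0.7 or 1.5 nM to 3 µM, in Tris-HCl pH 7.5 buffer with KCl, MgCl2, BSA, DTT, tRNA and Tween-20, with no input, 200 uM small-molecule ligand, or an oligonucleotide input. The RNA switches were transcribed on Illumina chips by stalled E. coli RNA polymerase.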

[1] = input ligand: microRNA oligo, concentration not stated
[2] = Eterna round: R95, input ligand: FMN 200 uM
[3] = Eterna round: R95, input ligand: microRNA oligo, concentration not stated
[4] = Eterna round: R95, input ligand: none

| Sequence | apparent KD of MS2 coat protein (input ligand: FMN 200 uM) | apparent KD of MS2 coat protein [1] | apparent KD of MS2 coat protein (input ligand: none) | apparent KD of MS2 coat protein [2] | apparent KD of MS2 coat protein [3] | apparent KD of MS2 coat protein [4] |
| --- | --- | --- | --- | --- | --- | --- |
| UGAUCUAGCGGAGGAUAUACAUGAGGAUCACCCAUGUAGAUAACAUGACCGUAGUCGUGUAUCGUGUAGAAGGCCGCUAGAUCU [JL ENG2 3.67] (Eterna round: R96, puzzle: Exclusion NG 2) | 35 nM | 9.25 nM | 12.6 nM |  |  |  |
| AUUGAUAUUGAGGAUAUGCUUUUAUUUGAACAAGCAGAAGGCGAUACAUGAGGAUCACCCAUGUUUAUGGAAGU [JR_E6_Sub087] (puzzle: Exclusion 6) |  |  |  | 51.6 nM | 37.6 nM | 49.4 nM |
| AGUACUAACACGGAAGUGUUAGUACAAUAAGCUUGUGUUACAUGAGGAUCACCCAUGUCCUCAUAAGCUCGUCUUAU [Mat - Sensor v3 - Turn-off var 2 - D61] (puzzle: Sensor v3, turn-off variant 2) |  |  |  | 113 nM | 12.4 nM | 112 nM |
| AGUAGGUCUACCUUGGUGGAUCUGCAUUUAUGCAAGUGUACAUGAGGAUCACCCAUGUCCUCAUUUGCUCGUCUUAU [JL turnoff v2 99.26] (puzzle: Sensor v3, turn-off variant 2) |  |  |  | 95 nM | 432 nM | 103 nM |
| ACAGUAUGAUCCGCUCAACAUGAGGAUCACCCAUGUGAUGACUAGGAUAUUAGUAGCCCGCGCAUUAAGAAGGAGUUACGAUUG [Eternabot solution 33] (Eterna round: R96, puzzle: Exclusion NG 3) | 20 nM | 13.9 nM | 23.6 nM |  |  |  |
| CUCCUCAUGGCGCCUAAACACAUGAGGAUCACCCAUGUACAGGCUUUUUGCCGUCUUAUAAUAAAACCGAGGAUACG [Raaen] (puzzle: Sensor v3, turn-off variant 1) |  |  |  | 76.3 nM | 167 nM | 149 nM |
| GUUAUGUAAGGAUAUAUGAGUCACGGAAAUAAACCGUGAAGAUAGAAGGUACAUGAGGAUCACCCAUGUAAGGC [Mod of Anonveat 9 - Jieux - Exclusion 4] (Eterna round: R97, puzzle: Exclusion 4) | 16.7 nM |  | 14 nM |  |  |  |
| AGUUGGCGAGGAUAUACAUGAGGAUCACCCAUGUGAAAUCGAGAAAAAAUAGGGAAAAGUAGAAGGCGCAGACA [Ruby 63] (Eterna round: R96, puzzle: Exclusion 3) | 28.2 nM | 24.3 nM | 28.7 nM |  |  |  |
| UAAAAGCUAGGAUAUACAUGAGGAUCACCCAUGUACCGGCUUGGCCCUGGUCCUAAAUGUAGAAGGAGCACGCC [Zarebebi] (puzzle: Exclusion 3) |  |  |  |  | 14.2 nM |  |
| GAUUAUGCGAGCUUUAGGGACAUGAGGAUCACCCAUGUUCGUCUUAUUGGUCUAGAUGCACUGACAUACCUAAAUCU [JMF 79] (puzzle: Sensor v3, turn-off variant 1) |  |  |  | 15.9 nM | 19.1 nM | 16.3 nM |
| UUUAAUUUUUUUUUUUUACAAGCUUUUUGCUCGUCUUAUACAUGAGGAUCACCCAUGUGGGUAGAGAGUAAAUUAUC [JMF 59] (Eterna round: R96, puzzle: Sensor v3, turn-off variant 2) | 21.1 nM | 102 nM | 19.3 nM |  |  |  |
| AUGAGGUUAGGAUAUACAUGAGGAUCACCCAUGUUGAAGGGUUAGGUAGGCGGAGCUGGUAGAAGGAACGGAGC [JR_Exclu3_Sub057] (puzzle: Exclusion 3) |  |  |  |  | 38.8 nM |  |
| CAUGUCUGAGGAUAUCGUUUUUUGUACAUGAGGAUCACCCAUGUCCUAUUUUUUAUAUUACGAGAAGGCAGUGGAU [JR_E5_Sub091] (Eterna round: R96, puzzle: Exclusion 5) | 27.9 nM | 27.8 nM | 39.2 nM |  |  |  |
| AGUGCGUAUGUGAGGAUAUGCUGGUCCUUGGAUCGGCAGAAGGCACAUGAGGAUCACCCAUGUGGUGUCGUACG [salish99_Bmod_ex4_077] (puzzle: Brourd's mod of Exclusion 4) |  |  |  | 203 nM | 58.6 nM | 89.2 nM |
| GGUGCGUUUGUGAGGAUAUGCUGGUCCUUGGUUCGGCAGAAGGCACAUGAGGAUCACCCAUGUGGUGUCGUACC [salish99_Bmod_Ex4_043] (puzzle: Brourd's mod of Exclusion 4) |  |  |  |  | 15.7 nM |  |
| CGCUAGUCAGGAUAUACGAACAUGUCAAAAGACGUGAAGGGACAUGAGGAUCACCCAUGUAGAAGGGACUAGCC [salish99_ex2_r3_011] (puzzle: Exclusion 2) |  |  |  | 111 nM | 21.3 nM | 25.8 nM |

From the supplement of paper PMC9170038
